The RNAGym collection of RNA variant scans (doi:10.1021/acssynbio.7b00057)

B1: Pistol ribozyme (parent)
chain: GGGUCGUUGUUCCAUAAUCGCGUGGAUAUGGCACGCAAGUUUCUACCGGGCACCGUAAAUGUCCGACUGGAGCCGUUCGGGCGGCUAUAAACAGACCUCAGGCCCGAAGCGUGGCGGCACCUGCCGCCGGUGGUAAAAAAGAUCGGAAGAGCACACGUCU

Variants of: B1
Assay: aptazyme ON/OFF ratio, guanine; higher = stronger switching; co-transcriptional cleavage with and without guanine

Going from GGGUCGAUCACCUAUAAUCGCGUGGAUAUGGCACGCAAGUUUCUACCGGGCACCGUAAAUGUCCGACUGGAGCCGUUCGGGCGGCUAUAAACAGACCUCAGGCCCGAAGCGUGGCGGCACCUGCCGCCGGUGGUAAAAAAGAUCGGAAGAGCACACGUCU [U7A G9C U10A U11C C13U] to GGGUCGAUCACCGAUAAUCGCGUGGAUAUGGCACGCAAGUUUCUACCGGGCACCGUAAAUGUCCGACUGGAGCCGUUCGGGCGGCUAUAAACAGACCUCAGGCCCGAAGCGUGGCGGCACCUGCCGCCGGUGGUAAAAAAGAUCGGAAGAGCACACGUCU [U7A G9C U10A U11C C13G], the “aptazyme ON/OFF ratio” value rises from 1.05 to 1.06.

Going from GGGUCGAUCCUACAUAAUCGCGUGGAUAUGGCACGCAAGUUUCUACCGGGCACCGUAAAUGUCCGACUGGAGCCGUUCGGGCGGCUAUAAACAGACCUCAGGCCCGAAGCGUGGCGGCACCUGCCGCCGGUGGUAAAAAAGAUCGGAAGAGCACACGUCU [U7A G9C U10C C12A] to GGGUCGAUCCUGCAUAAUCGCGUGGAUAUGGCACGCAAGUUUCUACCGGGCACCGUAAAUGUCCGACUGGAGCCGUUCGGGCGGCUAUAAACAGACCUCAGGCCCGAAGCGUGGCGGCACCUGCCGCCGGUGGUAAAAAAGAUCGGAAGAGCACACGUCU [U7A G9C U10C C12G], the “aptazyme ON/OFF ratio” value rises from 1.04 to 1.07.

First: GGGUCGAUCCUUCAUAAUCGCGUGGAUAUGGCACGCAAGUUUCUACCGGGCACCGUAAAUGUCCGACUGGAGCCGUUCGGGCGGCUAUAAACAGACCUCAGGCCCGAAGCGUGGCGGCACCUGCCGCCGGUGGUAAAAAAGAUCGGAAGAGCACACGUCU [U7A G9C U10C C12U]
Second: GGGUCGAUCCUAUAUAAUCGCGUGGAUAUGGCACGCAAGUUUCUACCGGGCACCGUAAAUGUCCGACUGGAGCCGUUCGGGCGGCUAUAAACAGACCUCAGGCCCGAAGCGUGGCGGCACCUGCCGCCGGUGGUAAAAAAGAUCGGAAGAGCACACGUCU [U7A G9C U10C C12A C13U]
The “aptazyme ON/OFF ratio” value of the first is higher: 1.17 for the first, 1.04 for the second.

Compared with GGGUCGAUCCUAAAUAAUCGCGUGGAUAUGGCACGCAAGUUUCUACCGGGCACCGUAAAUGUCCGACUGGAGCCGUUCGGGCGGCUAUAAACAGACCUCAGGCCCGAAGCGUGGCGGCACCUGCCGCCGGUGGUAAAAAAGAUCGGAAGAGCACACGUCU [U7A G9C U10C C12A C13A], GGGUCGAUCCUAGAUAAUCGCGUGGAUAUGGCACGCAAGUUUCUACCGGGCACCGUAAAUGUCCGACUGGAGCCGUUCGGGCGGCUAUAAACAGACCUCAGGCCCGAAGCGUGGCGGCACCUGCCGCCGGUGGUAAAAAAGAUCGGAAGAGCACACGUCU [U7A G9C U10C C12A C13G] is lower in “aptazyme ON/OFF ratio” value: 1.07 for the first, 1.04 for the second.

Compared with GGGUCGAUCAGAGAUAAUCGCGUGGAUAUGGCACGCAAGUUUCUACCGGGCACCGUAAAUGUCCGACUGGAGCCGUUCGGGCGGCUAUAAACAGACCUCAGGCCCGAAGCGUGGCGGCACCUGCCGCCGGUGGUAAAAAAGAUCGGAAGAGCACACGUCU [U7A G9C U10A U11G C12A C13G], GGGUCGAUCAGAUAUAAUCGCGUGGAUAUGGCACGCAAGUUUCUACCGGGCACCGUAAAUGUCCGACUGGAGCCGUUCGGGCGGCUAUAAACAGACCUCAGGCCCGAAGCGUGGCGGCACCUGCCGCCGGUGGUAAAAAAGAUCGGAAGAGCACACGUCU [U7A G9C U10A U11G C12A C13U] is lower in “aptazyme ON/OFF ratio” value: 1.07 for the first, 1.05 for the second.

Compared with GGGUCGAUCAGAAAUAAUCGCGUGGAUAUGGCACGCAAGUUUCUACCGGGCACCGUAAAUGUCCGACUGGAGCCGUUCGGGCGGCUAUAAACAGACCUCAGGCCCGAAGCGUGGCGGCACCUGCCGCCGGUGGUAAAAAAGAUCGGAAGAGCACACGUCU [U7A G9C U10A U11G C12A C13A], GGGUCGAUCCAACAUAAUCGCGUGGAUAUGGCACGCAAGUUUCUACCGGGCACCGUAAAUGUCCGACUGGAGCCGUUCGGGCGGCUAUAAACAGACCUCAGGCCCGAAGCGUGGCGGCACCUGCCGCCGGUGGUAAAAAAGAUCGGAAGAGCACACGUCU [U7A G9C U10C U11A C12A] is lower in “aptazyme ON/OFF ratio” value: 1.11 for the first, 1.06 for the second.

First: GGGUCGAUCAGUAAUAAUCGCGUGGAUAUGGCACGCAAGUUUCUACCGGGCACCGUAAAUGUCCGACUGGAGCCGUUCGGGCGGCUAUAAACAGACCUCAGGCCCGAAGCGUGGCGGCACCUGCCGCCGGUGGUAAAAAAGAUCGGAAGAGCACACGUCU [U7A G9C U10A U11G C12U C13A]
Second: GGGUCGAUCAGUGAUAAUCGCGUGGAUAUGGCACGCAAGUUUCUACCGGGCACCGUAAAUGUCCGACUGGAGCCGUUCGGGCGGCUAUAAACAGACCUCAGGCCCGAAGCGUGGCGGCACCUGCCGCCGGUGGUAAAAAAGAUCGGAAGAGCACACGUCU [U7A G9C U10A U11G C12U C13G]
The “aptazyme ON/OFF ratio” value of the first is lower: 1.03 for the first, 1.07 for the second.

First: GGGUCGAUCAGUUAUAAUCGCGUGGAUAUGGCACGCAAGUUUCUACCGGGCACCGUAAAUGUCCGACUGGAGCCGUUCGGGCGGCUAUAAACAGACCUCAGGCCCGAAGCGUGGCGGCACCUGCCGCCGGUGGUAAAAAAGAUCGGAAGAGCACACGUCU [U7A G9C U10A U11G C12U C13U]
Second: GGGUCGAUCAGCAAUAAUCGCGUGGAUAUGGCACGCAAGUUUCUACCGGGCACCGUAAAUGUCCGACUGGAGCCGUUCGGGCGGCUAUAAACAGACCUCAGGCCCGAAGCGUGGCGGCACCUGCCGCCGGUGGUAAAAAAGAUCGGAAGAGCACACGUCU [U7A G9C U10A U11G C13A]
The “aptazyme ON/OFF ratio” value of the first is higher: 1.16 for the first, 1.03 for the second.

Compared with GGGUCGAUCAGCUAUAAUCGCGUGGAUAUGGCACGCAAGUUUCUACCGGGCACCGUAAAUGUCCGACUGGAGCCGUUCGGGCGGCUAUAAACAGACCUCAGGCCCGAAGCGUGGCGGCACCUGCCGCCGGUGGUAAAAAAGAUCGGAAGAGCACACGUCU [U7A G9C U10A U11G C13U], GGGUCGAUCAGCGAUAAUCGCGUGGAUAUGGCACGCAAGUUUCUACCGGGCACCGUAAAUGUCCGACUGGAGCCGUUCGGGCGGCUAUAAACAGACCUCAGGCCCGAAGCGUGGCGGCACCUGCCGCCGGUGGUAAAAAAGAUCGGAAGAGCACACGUCU [U7A G9C U10A U11G C13G] is lower in “aptazyme ON/OFF ratio” value: 1.09 for the first, 1.06 for the second.
